# Experimental data as given in patent US6001988, “High affinity nucleic acid ligands to lectins” (NeXstar Pharmaceuticals, Inc.).
# B1: 227 (ssDNA)
# DNA: CTACCTACGATCTGACTAGCCGGACATGAGCGTTACAAGGTGCTAAACGTAACGTACTTGCTTACTCTCATGTAGTTCC
# B2: F13.57 (ssRNA)
# RNA: GGGAGGACGAUGCGGUAACAUAAAGUAGCGCGUCUGUGAGAGGAAGUGCCUGGAUCAGACGACUCGCCCGA
# modifications: 2'-NH2 all C and U
# B3: F14.9 (ssRNA)
# RNA: GGGAGGACGAUGCGGAAACCUUGAUGUGUGAUAGAGCAUCCCCCAGGCGACGUACCAGACGACUCGCCCGA
# modifications: 2'-NH2 all C and U
# B4: F13.51 (ssRNA)
# RNA: GGGAGGACGAUGCGGAUGUAAAUCUAGGCAGAAACGUAGGGCAUCCACCGCAACGACAGACGACUCGCCCGA
# modifications: 2'-NH2 all C and U
# B5: F13.32 (ssRNA)
# RNA: GGGAGGACGAUGCGGCGCGUAUGUGUGAAAGCGUGUGCACGGAGGCGUCUACAAUCAGACGACUCGCCCGA
# modifications: 2'-NH2 all C and U
# B6: 11.24 (ssRNA)
# RNA: GGGAAAAGCGAAUCAUACACAAGACGGCUGUGUGGUGUUGGAGCGUCAUAGUAGGAGUCGUCACGAACCAAGGCGCUCCGCCAGAGACCAACCGAGAA
# modifications: 2'-NH2 all C and U
# B7: F13.48 (ssRNA)
# RNA: GGGAGGACGAUGCGGAAAGUUAUGAGUCCGUAUAUCAAGGUCGACAUGUGUGAAUCAGACGACUCGCCCGA
# modifications: 2'-NH2 all C and U
# B8: F14.25 (ssRNA)
# RNA: GGGAGGACGAUGCGGUAGAGGUAGUAUGUGUGGGAGAUGAAAAUACUGUGGAAAGCAGACGACUCGCCCGA
# modifications: 2'-NH2 all C and U
# B9: 174 (ssDNA)
# DNA: CTACCTACGATCTGACTAGCCATTCACCATGGCCCCTTCCTACGTATGTTCTGCGGGTGGCTTACTCTCATGTAGTTCC
# B10: 230 (ssDNA)
# DNA: CTACCTACGATCTGACTAGCTGCACACCTGAGGGTTACAAGGCGCTAGACGTAACCTCTCGCTTACTCTCATGTAGTTCC
# Experiments:
# L-selectin (LS-Rg) [1] = biological target: T1, L-selectin (LS-Rg) (Homo sapiens, UniProt P14151 P14151:39-332); assay: filter; room temp, Ca/Mg; 160 pM at 37 C; details: tags: human IgG2 Fc fusion (provided by A. Varki); label: 32P; hairpin
# T1 chain: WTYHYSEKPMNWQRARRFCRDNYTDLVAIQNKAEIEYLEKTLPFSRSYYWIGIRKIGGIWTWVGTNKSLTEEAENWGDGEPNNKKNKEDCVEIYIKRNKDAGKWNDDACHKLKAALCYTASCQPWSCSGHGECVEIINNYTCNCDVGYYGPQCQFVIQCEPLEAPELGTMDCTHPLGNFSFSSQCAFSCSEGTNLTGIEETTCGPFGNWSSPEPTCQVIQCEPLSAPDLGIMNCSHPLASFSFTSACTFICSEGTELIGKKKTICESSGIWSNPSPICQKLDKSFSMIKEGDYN
# P-selectin (PS-Rg) [2] = biological target: T2, P-selectin (PS-Rg) (Homo sapiens, UniProt P16109 P16109:42-321); assay: filter; room temp; details: tags: human IgG1 Fc fusion (provided by A. Varki); chain copies: 2; label: 32P; hairpin
# T2 chain: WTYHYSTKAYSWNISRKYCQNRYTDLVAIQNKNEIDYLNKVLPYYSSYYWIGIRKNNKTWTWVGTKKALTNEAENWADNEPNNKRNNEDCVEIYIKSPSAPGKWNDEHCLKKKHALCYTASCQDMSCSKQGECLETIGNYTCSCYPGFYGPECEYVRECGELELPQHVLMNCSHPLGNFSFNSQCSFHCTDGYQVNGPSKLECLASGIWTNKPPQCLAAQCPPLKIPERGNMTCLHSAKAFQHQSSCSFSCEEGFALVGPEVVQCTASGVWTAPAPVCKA
# Method: (§1) RNA was reverse transcribed into cDNA by AMV reverse transcriptase at 48° C. for 60 min in 50 mM Tris-Cl pH (8.3), 60 mM NaCl, 6 mM Mg(OAc)_2, 10 mM DTT, 100 pmol DNA primer, 0.4 mM each of dNTPs, and 0.4 unit/µl AMV RT. […] C) Nitrocellulose Filter Partitioning As described in SELEX Patent Applications, the nitrocellulose filter partitioning method was used to determine the affinity of RNA ligands for WGA and for other proteins. Filter discs (nitrocellulose/cellulose acetate mixed matrix, 0.45 µm pore size, Millipore; or pure nitrocellulose, 0.45 µm pore size, Bio-Rad) were placed on a vacuum manifold and washed with 4 ml of HBSS buffer under vacuum. Reaction mixtures, containing ^32P labeled RNA pools and unlabeled WGA, were incubated in HBSS for 10 min at room temperature, filtered, and then immediately washed with 4 ml HBSS. The filters were air-dried and counted in a Beckman LS6500 liquid scintillation counter without fluor. WGA is a homodimer, molecular weight 43.2 kD, with 4 GlcNAc binding sites per dimer. For affinity calculations, we assume one RNA ligand binding site per monomer (two per dimer). The monomer concentration is defined as 2 times the dimer concentration. […]
# (§2) The affinity of representative cloned ligands for LS-Rg, ES-Rg, PS-Rg, CD22β-Rg and WGA was determined by nitrocellulose partitioning and the results shown in Table XIV. […]
# (§3) *Kds were determined at room temperature.
# E-selectin (ES-Rg) [3] = biological target: T3, E-selectin (ES-Rg) (Homo sapiens, UniProt P16581 P16581:22-556); assay: filter; room temp; details: tags: human IgG1 Fc fusion (provided by A. Varki); chain copies: 2; label: 32P; hairpin
# T3 chain: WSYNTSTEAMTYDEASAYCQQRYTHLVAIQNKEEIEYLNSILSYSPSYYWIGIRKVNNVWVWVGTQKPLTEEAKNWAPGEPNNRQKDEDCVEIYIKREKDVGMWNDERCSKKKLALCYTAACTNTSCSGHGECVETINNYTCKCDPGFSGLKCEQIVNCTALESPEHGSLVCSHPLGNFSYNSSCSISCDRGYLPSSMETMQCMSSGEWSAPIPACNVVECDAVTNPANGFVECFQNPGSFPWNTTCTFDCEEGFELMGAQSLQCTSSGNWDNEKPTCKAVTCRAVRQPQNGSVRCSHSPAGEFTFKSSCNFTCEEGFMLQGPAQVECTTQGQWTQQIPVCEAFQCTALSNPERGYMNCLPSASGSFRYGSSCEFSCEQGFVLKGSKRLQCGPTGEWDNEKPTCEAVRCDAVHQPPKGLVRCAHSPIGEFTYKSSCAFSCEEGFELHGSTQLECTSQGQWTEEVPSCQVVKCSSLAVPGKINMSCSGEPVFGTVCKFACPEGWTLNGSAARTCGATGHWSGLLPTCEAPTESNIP
# Method: as §1, §2, §3
# L-selectin (LS-Rg) [4] = biological target: T1, L-selectin (LS-Rg); assay: filter; 4 C, HSMC; 75 nM at room temp; details: tags: human IgG2 Fc fusion (provided by A. Varki); label: 32P; hairpin
# Method: (§4) As described in SELEX Patent Applications, the nitrocellulose filter partitioning method was used to determine the affinity of RNA ligands for LS-Rg and for other proteins. Filter discs (nitrocellulose/cellulose acetate mixed matrix, 0.45 um pore size, Millipore) were placed on a vacuum manifold and washed with 2 ml of HSMC buffer under vacuum. Reaction mixtures, containing ^32P labeled RNA pools and unlabeled LS-Rg, were incubated in HSMC for 10–20 min at 4° C., room temperature or 37° C., filtered, and then immediately washed with 4 ml HSMC at the same temperature. The filters were air-dried and counted in a Beckman LS6500 liquid scintillation counter without fluor.
# (§5) The dissociation constants for representative ligands from rounds 13 and 14, including all orphans, were determined by nitrocellulose filter binding experiments and are listed in Table IX. These calculations assume two RNA ligand binding sites per chimera. The affinity of random RNA cannot be reliably determined but is estimated to be approximately 10 µM.
# E-selectin (ES-Rg) [5] = biological target: T3, E-selectin (ES-Rg); assay: filter; 4 C, HSMC; details: tags: human IgG1 Fc fusion (provided by A. Varki), chain copies: 2, label: 32P
# Method: as §4
# (§6) The affinity of L-selectin ligands to ES-Rg, PS-Rg and CD22β-Rg were determined by nitrocellulose partitioning. […] In general, a ligand's affinity for ES-Rg is 10^3-fold lower and that for PS-Rg is about 10^4-fold less than for LS-Rg. […] The specificity of oligonucleotide ligand binding contrasts sharply with the binding of cognate carbohydrates by the selectins and confirms the assertion that SELEX ligands will have greater specificity than carbohydrate ligands.
# (§7) *Dissociation constants were determined at 4° C. in HSMC buffer.
# L-selectin (LS-Rg) [6] = biological target: T1, L-selectin (LS-Rg); assay: filter; 4 C, HSMC; 15.4 nM at room temp; details: tags: human IgG2 Fc fusion (provided by A. Varki); label: 32P; hairpin
# Method: as §4, §5
# L-selectin (LS-Rg) [7] = biological target: T1, L-selectin (LS-Rg); assay: filter; 4 C, HSMC; 18 nM at room temp; details: tags: human IgG2 Fc fusion (provided by A. Varki); label: 32P
# Method: as §4, §5
# P-selectin (PS-Rg) [8] = biological target: T2, P-selectin (PS-Rg); assay: filter; 4 C, HSMC; details: tags: human IgG1 Fc fusion (provided by A. Varki); chain copies: 2; label: 32P; hairpin
# Method: as §4, §6, §7
# L-selectin (LS-Rg) [9] = biological target: T1, L-selectin (LS-Rg); assay: filter; 4 C, HSMC; 14.9 nM at room temp; details: tags: human IgG2 Fc fusion (provided by A. Varki); label: 32P; hairpin
# Method: as §4, §5
# [10] = biological target: T4, wheat germ agglutinin (WGA) (Triticum vulgare, UniProt P10968 P10968:27-197); assay: filter; HBSS, room temp; 19.2 nM in Table IV; details: tags: free lectin, E Y Laboratories; label: 32P; hairpin
# T4 sequence: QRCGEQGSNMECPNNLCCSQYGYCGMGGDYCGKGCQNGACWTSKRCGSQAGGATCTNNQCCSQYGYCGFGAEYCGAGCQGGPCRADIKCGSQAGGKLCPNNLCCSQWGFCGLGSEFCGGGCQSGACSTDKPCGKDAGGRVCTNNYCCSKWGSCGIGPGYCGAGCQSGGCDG
# Method: The specifically eluted fraction was processed for use in the following round. Fractions eluted from immobilized WGA were heated at 90° C. for 5 minutes in 1% SDS, 2% β-mercaptoethanol and extracted with phenol/chloroform. RNA was reverse transcribed into cDNA by AMV reverse transcriptase at 48° C. for 60 min in 50 mM Tris-Cl pH (8.3), 60 mM NaCl, 6 mM Mg(OAc)_2, 10 mM DTT, 100 pmol DNA primer, 0.4 mM each of dNTPs, and 0.4 unit/µl AMV RT. […] C) Nitrocellulose Filter Partitioning As described in SELEX Patent Applications, the nitrocellulose filter partitioning method was used to determine the affinity of RNA ligands for WGA and for other proteins. Filter discs (nitrocellulose/cellulose acetate mixed matrix, 0.45 µm pore size, Millipore; or pure nitrocellulose, 0.45 µm pore size, Bio-Rad) were placed on a vacuum manifold and washed with 4 ml of HBSS buffer under vacuum. Reaction mixtures, containing ^32P labeled RNA pools and unlabeled WGA, were incubated in HBSS for 10 min at room temperature, filtered, and then immediately washed with 4 ml HBSS. The filters were air-dried and counted in a Beckman LS6500 liquid scintillation counter without fluor. WGA is a homodimer, molecular weight 43.2 kD, with 4 GlcNAc binding sites per dimer. For affinity calculations, we assume one RNA ligand binding site per monomer (two per dimer). […]
# L-selectin (LS-Rg) [11] = biological target: T1, L-selectin (LS-Rg); assay: filter; 4 C, HSMC; 9.2 nM at room temp; details: tags: human IgG2 Fc fusion (provided by A. Varki); label: 32P; hairpin
# Method: as §4, §5
# L-selectin (LS-Rg) [12] = biological target: T1, L-selectin (LS-Rg); assay: filter; 4 C, HSMC; details: tags: human IgG2 Fc fusion (provided by A. Varki); label: 32P; no stem
# Method: as §4, §5
# L-selectin (LS-Rg) [13] = biological target: T1, L-selectin (LS-Rg); assay: filter; room temp; 370 pM at 37 C; details: tags: human IgG2 Fc fusion (provided by A. Varki); label: 32P
# P-selectin (PS-Rg) [14] = biological target: T2, P-selectin (PS-Rg); assay: filter; room temp, Ca/Mg buffer; details: tags: lectin, EGF and first two CRD domains fused to human IgG1 Fc (provided by A. Varki); chain copies: 2 (dimeric Fc chimera, inferred)
# E-selectin (ES-Rg) [15] = biological target: T3, E-selectin (ES-Rg); assay: filter; room temp, Ca/Mg buffer; details: tags: extracellular domain fused to human IgG1 Fc (provided by A. Varki); chain copies: 2 (dimeric Fc chimera, inferred)
# L-selectin (LS-Rg) [16] = biological target: T1, L-selectin (LS-Rg); assay: filter; room temp; 260 pM at 37 C; details: tags: human IgG2 Fc fusion (provided by A. Varki); label: 32P; hairpin
binder,measurement,setting,value
B1,Kd,L-selectin (LS-Rg) [1],0.043 nM
same,Kd,P-selectin (PS-Rg) [2],560 nM
same,Kd,E-selectin (ES-Rg) [3],33 nM
B2,Kd,L-selectin (LS-Rg) [4],3 nM
same,Kd,E-selectin (ES-Rg) [5]; hairpin,2700 nM
B3,Kd,L-selectin (LS-Rg) [6],8.2 nM
B4,Kd,L-selectin (LS-Rg) [7],8.8 nM
same,Kd,E-selectin (ES-Rg) [5],2000 nM
B5,Kd,P-selectin (PS-Rg) [8],17000 nM
same,Kd,L-selectin (LS-Rg) [9],15.7 nM
B6,Kd,[10],19.4 nM
B7,Kd,P-selectin (PS-Rg) [8],720 nM
same,Kd,L-selectin (LS-Rg) [11],15.9 nM
B8,Kd,L-selectin (LS-Rg) [12],1300 nM
B9,Kd,L-selectin (LS-Rg) [13],0.043 nM
same,Kd,P-selectin (PS-Rg) [14],380 nM
same,Kd,E-selectin (ES-Rg) [15],28 nM
B10,Kd,L-selectin (LS-Rg) [16],0.057 nM
same,Kd,P-selectin (PS-Rg) [14],600 nM
same,Kd,E-selectin (ES-Rg) [15],19 nM
